B1: library; numbered along this chain (parent)
chain: MAAAGGARLLRAASAVLGGPAGRWLHHAGSRAGSSGLLRNRGPGGSAEASRSLSVSARARSSSEDKITVHFINRDGETLTTKGKVGDSLLDVVVENNLDIDGFGACEGTLACSTCHLIFEDHIYEKLDAITDEENDMLDLAYGLTDRSRLGCQICLTKSMDNMTVRVPETVADARQSIDVGKTS

Variants of: B1
Assay: scaled log2 fold change in cell abundance, elesclomol vs control (0 = silent mean, 1 = nonsense mean) (scaled log2 ratio); higher = higher viability under elesclomol (loss of FDX1 cuproptosis function)
Settings: glucose 10 mM
[1] = with ABC1 FDX1 KO, elesclomol 5 nM, 14 days
[2] = with HEK293T FDX1 KO, elesclomol 40 nM, 11 days
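Further: variant abundance is its share of total variant reads in each endpoint sample, from next-generation sequencing of the integrated ORF PCR-amplified out of genomic DNA.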

Row | Variant | scaled log2 fold change [1] | scaled log2 fold change [2]
1 | I100A | 0.162 | -0.8
2 | I100P | 0.146 | -0.208
3 | I100K | 0.223 | 0.128
4 | I100R | 0.287 | 0.0979
5 | I100Q | 0.155 | 0.874
6 | I100V | -0.852 | 0.0203
7 | I100C | -0.292 | 0.943
8 | C106P | 1.07 | 0.899
9 | C106L | 1.09 | 1.32
10 | C106F | 1.03 | 1.44
11 | C106H | 1.11 | 1
12 | C106Q | 0.973 | 1.99
13 | C106Y | 1.17 | 1.2
14 | C106W | 1.05 | 1.27
15 | C106G | 1.07 | 1.6
16 | C106D | 1.03 | 1.3
17 | C106V | 1.17 | 1.11
18 | C106R | 1.07 | 1.14
19 | C106A | 1.03 | 1.51
20 | C106S | 1.19 | 1.14
21 | C106T | 1.19 | 1.27
22 | C106E | 1.06 | 1.3
23 | C106K | 1.09 | 1.38
24 | C106N | 1.18 | 0.906

Row | Variant | scaled log2 fold change [1] | scaled log2 fold change [2]
25 | C106M | 1.1 | 1.09
26 | C106I | 1.16 | 1.5
27 | D99I | 0.14 | -0.0831
28 | D99V | 0.0908 | -1.19
29 | D99N | -0.0926 | -0.216
30 | D99Y | -0.0205 | 0.198
31 | D99F | -0.0227 | 0.0629
32 | D99L | -0.286 | -0.152
33 | D99E | 0.144 | 0.199
34 | D99M | -0.0783 | 0.944
35 | D99T | 0.182 | -0.092
36 | D99Q | 0.0501 | -1.25
37 | D99S | -0.273 | -0.316
38 | D99P | 0.167 | -0.37
39 | D99A | 0.0591 | -1.37
40 | D99K | 0.114 | -0.24
41 | D99R | -0.084 | 0.945
42 | D99G | -1 | -0.777
43 | D99C | 0.108 | 0.138
44 | D99H | -0.403 | -0.137
45 | D99W | -0.0217 | -0.818
46 | N96Y | -0.25 | -0.153
47 | N96Q | -0.22 | 0.0675
48 | N96T | -0.0877 | -0.163

Row | Variant | scaled log2 fold change [1] | scaled log2 fold change [2]
49 | N96P | 0.423 | -0.187
50 | N96M | 0.283 | -0.778
51 | N96V | 0.307 | 0.567
52 | N96S | -0.155 | -0.272
53 | N96F | 0.145 | -0.464
54 | N96H | 0.245 | 
55 | N96I | 0.329 | 0.221
56 | N96K | -0.0525 | -0.121
57 | N96G | 0.111 | 0.179
58 | N96R | 0.204 | -0.0627
59 | N96W | -0.0659 | -0.145
60 | N96L | 0.0905 | 0.033
61 | G104A | 0.243 | -1.55
62 | G104K | 0.879 | 0.468
63 | G104R | 0.848 | 0.682
64 | G104Y | 0.933 | 1.09
65 | G104L | 1.03 | 0.779
66 | G104D | 1.12 | 0.43
67 | G104Q | 1.05 | 0.891
68 | G104H | 0.989 | 0.725
69 | G104T | 0.997 | 1.59
70 | G104M | 0.794 | 0.449
71 | G104W | 0.96 | 0.69
72 | G104P | 1.02 | 0.598

Row | Variant | scaled log2 fold change [1] | scaled log2 fold change [2]
73 | G104V | 0.949 | 1.02
74 | G104S | 0.931 | 0.363
75 | G104E | 1.19 | 0.941
76 | G104N | 0.899 | 1.47
77 | G104I | 0.933 | 1.53
78 | G104C | 0.959 | 1.19
79 | G104F | 0.647 | 0.268
80 | E107P | 0.92 | 0.951
81 | E107A | 0.00703 | -0.202
82 | E107T | -0.333 | 0.112
83 | E107D | -0.195 | 0.683
84 | E107Q | -0.324 | -0.527
85 | E107H | -0.0248 | 0.933
86 | E107V | 0.145 | 0.849
87 | E107F | -0.754 | -1.14
88 | E107M | -0.428 | -0.835
89 | E107I | 0.227 | 0.0716
90 | E107K | -0.532 | 0.255
91 | E107C | 0.0589 | 0.444
92 | E107W | 0.121 | -0.686
93 | E107L | -0.267 | -0.452
94 | E107G | -0.152 | 0.114
95 | E107R | -1.12 | 1.26
96 | E107N | 0.0244 | -0.796

Row | Variant | scaled log2 fold change [1] | scaled log2 fold change [2]
97 | E107Y | 0.333 | -0.16
98 | L98C | -0.21 | -0.505
99 | L98I | -0.0119 | -0.482
100 | L98N | 0.309 | 0.504
101 | L98V | -0.0512 | -0.662
102 | L98R | 0.136 | 0.607
103 | L98F | -0.0232 | -0.902
104 | L98D | 0.341 | 0.871
105 | L98T | -0.168 | 0.331
106 | L98Y | 0.000145 | -0.257
107 | L98P | -0.901 | 0.205
108 | L98W | 0.476 | 0.189
109 | L98E | 0.00205 | 0.172
110 | L98A | -0.194 | -1.06
111 | L98S | 0.421 | -0.0745
112 | L98Q | 0.167 | -0.327
113 | L98M | 0.0485 | 0.18
114 | L98K | 0.356 | 0.0251
115 | L98G | 0.225 | 0.327
116 | L98H | 0.186 | 0.86

— the supplement of paper PMC12855868
